Data taken from patent US20230348564A1, “ANTI-CANCER PROTEINS” (UNICHEM LABORATORIES LTD, priority 2020, published 2023).

Assays:
[1] = tested on: neovascularization of Matrigel plug containing FGF-2 (bFGF); experiment: Matrigel plug assay (in-vivo anti-angiogenesis); design: species or system C57BL/6 mice; settings: qdx15
Protocol: Healthy C57BL/6 mice were selected and grouped on the basis of body weight into […] (G1-G4, n=7). Each mouse of group G2-G4 was subcutaneously injected at right flank region with 500 μl of matrigel containing 500 ng of FGF-2 (bFGF). Whereas mice of G1 group were subcutaneously injected at right flank region with 500 μl of matrigel only. In this assay, angiogenesis-inducing compounds such as bFGF was introduced into cold liquid Matrigel which, after subcutaneous injection, solidified and permits penetration by host cells and the formation of new blood vessels (neovascularization).
Required amount of test items were taken and added to an appropriate volume of Tris Buffered Saline (TBS) to achieve the required concentrations. The dose volume given to animal was 10 mL/Kg.
Daily cage-side observations were carried out to detect any clinical signs or mortality and recorded throughout the experiment period.

Glioma (C6) = experiment: cytotoxicity in Brain Tumor Cell lines by MTT assay; format: cell-based, Rat; settings: 72 h
Protocol: (§1) The SEQ ID NO. […] Untreated cells were used as control. […] Cells were incubated for 3 h at 37° C.

[2] = tested on: PBMC (Peripheral blood mononuclear cells); experiment: cell based in vitro cytotoxicity/anti-proliferation assay (summary); settings: normal cells
Protocol: The percentage cytotoxicity was calculated using the statistical tool.

CCR5 = experiment: SelectScreen Cell-based Pathway Profiling (GeneBLAzer bla reporter); design: species or system Human; settings: 0.058 μg/mL-50 μg/mL
Protocol: (§2) The mechanism of action of the recombinant lectin having the amino acid sequence of SEQ ID NO.2 is studied by determining its effect on the modulation of key signaling pathways involved in the pathogenesis of cancer. The study was performed using SelectScreen® Cell-based Pathway Profiling Services at Life Technologies, USA. Modulatory effect of Lectin having the amino acid sequence of SEQ ID NO. 2 on various cell signaling pathways was investigated in cell lines overexpressing specific markers using GeneBLAzer Beta-lactamase (bla) Reporter Technology and Tango platforms. The cell lines tested were MDA-MB-231 (Human Breast cancer), KB (Human Cervical cancer), PA-1 (Human ovarian cancer), PANC-1 (Human pancreatic cancer), HT-29 (Human colorectal cancer), T-24 (Human Bladder cancer)
(§3) 10 mg of recombinant lectin having the amino acid sequence of SEQ ID NO.2 was dissolved in 200 μL of TBS buffer (25 mM, pH 8.0) to obtain stock solution of 50 mg/mL. The stock solutions were diluted in Serum Free Medium (STM) to achieve final concentrations in cells ranging from 0.00158 μg/mL-50 μg/mL. Cells (32 μL) were diluted in Assay Media to appropriate cell density and were added to the assay plate. Cells were incubated at 37° C./5% CO2 for 24 h. 40 nL of 1000×sample and 4 μL of assay medium was added to the cells in the assay plate and incubated for 30 minutes at 37° C./5% CO2 in a humidified incubator. Then, 4 μL of the 10×EC80 concentration of activator was added to all wells containing sample to bring the final assay volume to 40 μL. The assay plate was incubated for 16 hours at 37° C./5% CO2 in a humidified incubator. Further, 8 μL of the Substrate Loading Solution (LiveBLAzer™—FRET B/G) was added to the assay plate. The assay plate was incubated for 2 hours at room temperature, in the dark. The assay plate was read on a fluorescence plate reader (Tecan Safire2). Fluorescence emission values at 460 nm and 530 nm were obtained using a standard florescence plate reader and % modulation was determined.
(§4) % Modulation=[(A−B)/A]*100
(§5) Where, A=Fluorescence reading in Control (untreated cells) B=Fluorescence reading in TI treated cells

PKC/Ca2+ = experiment: as above; design: species or system Human
Protocol: as §2, §3, §4, §5

NF-KB = experiment: as above; design: species or system Human; settings: 0.5 μg/mL-50 μg/mL
Protocol: as §2, §3, §4, §5

TNF-alpha/JNK = experiment: as above; design: species or system Human; settings: 0.5 μg/mL-50 μg/mL
Protocol: as §2, §3, §4, §5

IL-4/STAT6 = experiment: as above; design: species or system Human; settings: 0.0158 μg/mL-0.5 μg/mL
Protocol: as §2, §3, §4, §5

PI3K/AKT/FOXO3 = experiment: as above; design: species or system Human; settings: 0.5 μg/mL-50 μg/mL
Protocol: as §2, §3, §4, §5

ADBR1 = experiment: as above; design: species or system Human; settings: 0.158 μg/mL-50 μg/mL
Protocol: as §2, §3, §4, §5

MAPK/EGFR/Ras/Raf = experiment: as above; design: species or system Human; settings: 0.158 μg/mL-50 μg/mL
Protocol: as §2, §3, §4, §5

IOMM-Lee cell line = experiment: Mitochondrial membrane depolarization by JC-1 staining; format: cell-based, Human; settings: 1 μg/mL-80 μg/mL
Protocol: (§6) The evaluation of pro-apoptotic effect of SEQ ID NO. 2 in brain tumor cell lines U251MG & IOMM Lee was conducted. The cells were treated with SEQ ID NO. 2 at various concentrations around IC50 values. Resultant effect on apoptosis was determined via externalization of Phosphatidyl Serine (PS) on cell membrane by Annexin-V staining, mitochondrial membrane depolarization by JC-1 staining and cell cycle distribution analysis by Propidium Iodide (PI) staining. Increase in apoptotic markers in U251MG & IOMM-Lee cell lines reflected the pro-apoptotic potential of SEQ ID NO. 2 in brain tumor. • Externalization of PS on cell membrane by Annexin-V staining on U251MG cell line: SEQ ID NO.

U251MG cell line = experiment: as above; format: cell-based, Human; settings: 1 μg/mL-80 μg/mL
Protocol: as §6

Glioblastoma (LN-18) = experiment: cytotoxicity in Brain Tumor Cell lines by MTT assay; format: cell-based, Human; settings: 72 h
Protocol: as §1

Neuroblastoma (SH-SY5Y) = experiment: as above; format: cell-based, Human; settings: 72 h
Protocol: as §1

B1: SEQ ID NO. 2: recombinant lectin; variant of the S. rolfsii lectin amino acid sequence (reported as Rec-2 in WO 2010/095143) (protein)
chain: TYKITVRVYQTNPDAFFHPVEKTVWKYANGGTWTITDDQHVLTMGGSGTSGTLRFHADNGESFTATFGVHNYKRWCDIVTNLAADETGMVINQQYYSQKNREEARERQLSNYQVKNAKGRNFQIVYTEAEGNDLHANLIIG
modifications: In vitro synthesis
neovascularization (H&E histology), in words ([1]; 10 mg/Kg, i.p.): marginally reduced | Hemoglobin Content in the Matrigel Plug Section, Mean ([1]; G4, 10 mg/Kg, i.p.): 41.10 | reduction in hemoglobin content in homogenate of Matrigel plug compared to positive control ([1]; G4, 10 mg/Kg, i.p.): 23.6% | Histological Observation, Fat cell Infiltration, Mean ([1]; G4, 10 mg/Kg): 1.57 | Histological Observation, Fibroblast Infiltration, Mean ([1]; G4, 10 mg/Kg): 3.29 | Histological Observation, MN cell Infiltration, Mean ([1]; G4, 10 mg/Kg): 2.71 | Histological Observation, Neovascularization, Mean ([1]; G4, 10 mg/Kg): 2.43 | % of cytotoxicity (Glioma (C6); 2.5 μg/mL-100 μg/mL): 18.8-48.3% | IC50 Value (Glioma (C6)): >100 µg/mL | % Cytotoxicity (MCF-7): 28.0% | % Cytotoxicity ([2]; listed as SEQ ID NO 2): Nil | % Cytotoxicity ([2]; listed as SEQ ID No 2): did not show cytotoxic effect | Effect (wrt control), inhibition (CCR5): 21%-70% inhibition | Effect (wrt control), inhibition (CCR5; listed as recombinant lectin): 21%-70% | effective inhibition (PKC/Ca2+; 0.00158 μg/mL to 0.5 μg/mL): 5% to 19% | Effect (wrt control), inhibition (PKC/Ca2+; 0.00158 μg/mL-0.158 μg/mL): 5%-19% inhibition | Effect (wrt control), inhibition (NF-KB): 3%-13% inhibition | Effect (wrt control), inhibition (NF-KB; listed as recombinant lectin): 3% to 13% | Effect (wrt control), inhibition (TNF-alpha/JNK): 12%-45% inhibition | Effect (wrt control), inhibition (TNF-alpha/JNK; listed as recombinant lectin): 12% to 45% | Effect (wrt control), inhibition (IL-4/STAT6): 16%-28% inhibition | Effect (wrt control), inhibition (IL-4/STAT6; listed as recombinant lectin): 16% to 28% | Effect (wrt control), inhibition (PI3K/AKT/FOXO3): 2%-73% inhibition | Effect (wrt control), inhibition (PI3K/AKT/FOXO3; listed as recombinant lectin): 2% to 73% | Effect (wrt control), inhibition (ADBR1): 26%-49% inhibition | Effect (wrt control), inhibition (ADBR1; listed as recombinant lectin): 26% to 49% | Effect (wrt control), inhibition (MAPK/EGFR/Ras/Raf): 2%-48% inhibition | Effect (wrt control), inhibition (MAPK/EGFR/Ras/Raf; listed as recombinant lectin): 2% to 48% | increase in mitochondrial membrane depolarization as compared to Control (Untreated) (IOMM-Lee cell line): 16.1%-36.4% | increase in mitochondrial membrane depolarization as compared to Control (Untreated) (U251MG cell line): 36.8%-60.9% | % of cytotoxicity (Glioblastoma (LN-18); 2.5 μg/mL-100 μg/mL): 39.6%-75.3% | IC50 Value (Glioblastoma (LN-18)): 4.35 µg/mL | % of cytotoxicity (Neuroblastoma (SH-SY5Y); 2.5 μg/mL-100 μg/mL): 10.3%-46.9% | IC50 Value (Neuroblastoma (SH-SY5Y)): >100 µg/mL
